From article PMC7430637 (2020)

Columns and labels:
recombinant mUHRF1 V1 [1] = biological target: T1, recombinant mUHRF1 V1 (mouse, UniProt Q8VDF2 1-782); test: MST
T1 chain: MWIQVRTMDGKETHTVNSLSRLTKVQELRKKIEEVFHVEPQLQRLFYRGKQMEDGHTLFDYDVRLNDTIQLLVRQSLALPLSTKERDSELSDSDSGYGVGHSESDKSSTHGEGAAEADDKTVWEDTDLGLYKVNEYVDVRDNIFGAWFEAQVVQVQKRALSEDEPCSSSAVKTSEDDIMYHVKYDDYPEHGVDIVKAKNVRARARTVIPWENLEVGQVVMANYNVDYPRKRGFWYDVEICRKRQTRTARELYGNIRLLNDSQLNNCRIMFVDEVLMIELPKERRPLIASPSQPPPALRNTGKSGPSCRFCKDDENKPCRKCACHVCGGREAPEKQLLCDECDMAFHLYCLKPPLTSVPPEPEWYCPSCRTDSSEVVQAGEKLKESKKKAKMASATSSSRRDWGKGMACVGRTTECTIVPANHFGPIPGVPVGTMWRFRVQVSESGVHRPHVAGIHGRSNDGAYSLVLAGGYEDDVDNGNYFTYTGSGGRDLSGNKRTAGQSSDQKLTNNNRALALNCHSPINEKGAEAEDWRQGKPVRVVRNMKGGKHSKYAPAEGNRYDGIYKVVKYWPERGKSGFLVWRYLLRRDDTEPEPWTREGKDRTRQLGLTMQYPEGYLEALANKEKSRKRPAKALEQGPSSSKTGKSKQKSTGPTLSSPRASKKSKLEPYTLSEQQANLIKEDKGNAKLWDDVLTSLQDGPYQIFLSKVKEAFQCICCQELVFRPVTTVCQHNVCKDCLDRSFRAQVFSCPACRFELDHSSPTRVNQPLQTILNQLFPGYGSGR

recombinant mUHRF1 V2 [2] = biological target: T2, recombinant mUHRF1 V2 (mouse); test: MST
T2 chain: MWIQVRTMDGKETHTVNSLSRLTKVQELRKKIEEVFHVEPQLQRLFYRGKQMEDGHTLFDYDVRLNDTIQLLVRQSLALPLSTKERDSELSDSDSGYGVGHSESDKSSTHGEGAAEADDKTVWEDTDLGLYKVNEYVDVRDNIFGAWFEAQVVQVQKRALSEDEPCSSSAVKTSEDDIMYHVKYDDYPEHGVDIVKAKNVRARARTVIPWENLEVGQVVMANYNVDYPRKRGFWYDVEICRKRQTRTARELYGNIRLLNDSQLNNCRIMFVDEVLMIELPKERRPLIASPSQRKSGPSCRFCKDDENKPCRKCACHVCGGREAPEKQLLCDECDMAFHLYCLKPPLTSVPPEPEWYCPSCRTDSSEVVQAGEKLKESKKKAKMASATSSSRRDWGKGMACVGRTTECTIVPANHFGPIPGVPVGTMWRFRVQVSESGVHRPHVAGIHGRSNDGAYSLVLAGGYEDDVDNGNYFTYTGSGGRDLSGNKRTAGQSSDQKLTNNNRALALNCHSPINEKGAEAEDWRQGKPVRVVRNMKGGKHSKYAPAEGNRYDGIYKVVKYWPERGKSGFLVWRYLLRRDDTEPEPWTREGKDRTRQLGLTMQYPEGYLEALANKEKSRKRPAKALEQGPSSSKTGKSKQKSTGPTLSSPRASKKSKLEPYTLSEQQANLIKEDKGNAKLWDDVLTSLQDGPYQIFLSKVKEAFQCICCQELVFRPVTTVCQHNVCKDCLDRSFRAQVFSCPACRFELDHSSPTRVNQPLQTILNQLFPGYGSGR

recombinant hUHRF1 [3] = biological target: T3, recombinant hUHRF1 (human, UniProt Q96T88-1 1-793); test: MST
T3 chain: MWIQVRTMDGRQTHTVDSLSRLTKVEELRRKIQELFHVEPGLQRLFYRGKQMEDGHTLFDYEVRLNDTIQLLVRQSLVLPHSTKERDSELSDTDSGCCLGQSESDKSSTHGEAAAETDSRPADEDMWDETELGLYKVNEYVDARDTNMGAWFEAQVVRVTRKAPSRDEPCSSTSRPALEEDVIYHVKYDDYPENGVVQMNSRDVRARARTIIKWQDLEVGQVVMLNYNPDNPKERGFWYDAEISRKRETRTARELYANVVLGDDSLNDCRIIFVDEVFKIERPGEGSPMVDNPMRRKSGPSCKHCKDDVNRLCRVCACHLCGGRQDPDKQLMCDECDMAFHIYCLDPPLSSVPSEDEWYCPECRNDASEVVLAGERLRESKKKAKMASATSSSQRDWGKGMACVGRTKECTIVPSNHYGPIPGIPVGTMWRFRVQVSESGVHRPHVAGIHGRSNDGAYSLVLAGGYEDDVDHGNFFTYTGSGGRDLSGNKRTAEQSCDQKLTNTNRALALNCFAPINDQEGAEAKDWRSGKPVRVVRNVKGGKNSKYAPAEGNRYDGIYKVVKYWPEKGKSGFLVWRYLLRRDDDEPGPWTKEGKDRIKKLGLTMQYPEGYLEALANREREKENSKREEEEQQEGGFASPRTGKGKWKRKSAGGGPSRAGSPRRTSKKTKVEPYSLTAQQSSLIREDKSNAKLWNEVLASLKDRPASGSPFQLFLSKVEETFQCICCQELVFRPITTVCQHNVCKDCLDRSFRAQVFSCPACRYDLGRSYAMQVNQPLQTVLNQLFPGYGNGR

recombinant mUHRF1 V1 [4] = biological target: T1, recombinant mUHRF1 V1; test: MST; + 100-fold molar excess PI5P
recombinant mUHRF1 V2 [5] = biological target: T2, recombinant mUHRF1 V2; test: MST; + 100-fold molar excess PI5P
recombinant hUHRF1 [6] = biological target: T3, recombinant hUHRF1; test: MST; + 100-fold molar excess PI5P

## ARTKQTARKSTGGKA (trimethyl-lysine at K9) [H3K9me3 peptide (titrated in MST)]
Recombinant mUHRF1 V1 [1]
  Kd: 1400 nM
Recombinant mUHRF1 V2 [2]
  Kd: 4000 nM
Recombinant hUHRF1 [3]
  Kd: 1500 nM
Recombinant mUHRF1 V1 [4]
  Kd: 2600 nM
Recombinant mUHRF1 V2 [5]
  Kd: 8100 nM
Recombinant hUHRF1 [6]
  Kd: 80 nM
